Laboratory results: the supplement of paper PMC10567573

B1: INTS3 (parent)
chain: AQLQALRQKEVDFCISLLRERFME
B2: CPOX (parent)
chain: HAPTIHFNYRYFEVEEADGNKQWW

Variants of: B1
Experiment: protein stability index of a GFP-peptide fusion (GPS, HEK-293T) (PSI 1-6); higher = more stable
Conditions: c terminus: a fixed tail appended
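Also: lentivirally expressed fusions sorted by FACS into six bins by GFP to DsRed ratio, PSI derived from sequencing read proportions per bin multiplied by bin number.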

Protein stability index: each site, then its substitutions
Q2: F 2.63, E 1.48, Y 3.15, I 1.67, N 3.27, T 3.02, D 3.29, W 2.42, P 2.38, H 4.58, R 4.11, C 2.98, M 3.7, G 3.4
E10: S 3.14, C 1.02, M 2.87, A 2.86, K 2.2, D 1.04, R 2.09, Y 1.49, P 2.72, I 2.25, W 1.53, F 2.15, N 1.32, L 3.79, G 2.1
Q4: I 3.2, T 3.02, N 2.4, R 2.3, G 2.13, C 1.93, M 2.55, P 1.5, S 1.55, A 3.65, H 3.32, V 2.98, F 1.83, L 2.45, E 2.81, D 2.04, W 3.64
R19: Y 2.94, D 1.57, E 1, F 1.87, N 3.64, G 1.37, Q 2.74, M 2.43, P 2.21, L 2.02, S 3.43, K 1.2
S16: V 1.11, M 4.38, I 2.38, Y 3.56, D 2.09, K 1.65, E 3.24, F 4.27, P 2.14, R 3.39, L 1.85, G 3.67, Q 3.15, C 3.15, N 3.32
D12: G 2.1, Y 2.09, V 4.29, H 3.57, C 3.46, L 2.47, K 1.98, R 2.19, P 2.05, W 3.08, S 3.29, T 2.66, N 1.59, Q 2.12, F 1.05, I 1.91, E 2.45
L17: N 2.1, R 2.08, T 1.8, F 1.9, S 1.22, H 1.65, Y 2.51, E 2.06, V 3.89, W 2.46, K 2, P 2.16, D 2.56, G 2.3, A 2.03, Q 2.45
F22: A 1.45
Q8: Y 4.01, T 3.06, R 1.91, D 2.83, P 1.22, L 1.78, E 1.91, H 3.1, G 2.55, K 1.65, I 3.36, N 2.37, S 3.06, V 3.32, A 2.62
L18: S 1.87, E 2.57, P 2.04, T 2.24, K 2.34, C 1.02, N 1.97, V 3.22, H 1.76, M 3.87, F 3.16, Q 3.04, G 3.07, D 2.38, R 2.2, Y 3.92, A 1.7
V11: T 1.81, S 1.67, Y 2.73, C 1.29, W 2.14, G 1.72, A 2.23, H 3.66, P 2.7, K 1.7, R 1.99, D 2.49, L 4.26, M 3.61, Q 1.81, F 2.1, E 2.54, N 2.25
A1: R 2.08, K 2.62, N 2.73, G 2.93, T 3.13, V 2.85, E 2.65, W 2.49, Q 2.43, D 2.11, C 3.01, H 3.79, M 2.4, P 3.68, I 2.43, L 1.61
F13: R 1.27, A 1.09, T 2.44, L 1.64, H 1.95, D 1.55, I 2.49, Y 5.35, S 2.19, P 2.3, Q 1.82, C 3.42, M 2.52, W 3.65, G 2, E 1.66, N 2.37, K 2.9, V 2.7
R7: V 1.74, H 2.84, K 2.71, S 2.93, W 2.6, D 1.65, T 3.43, L 2.24, G 4.64, Q 2.73, Y 3.17, F 2.46, N 2.35, P 2.23
K9: D 1.9, S 2.29, N 1.93, L 2.48, I 3.07, Y 3.51, G 2.51, Q 3.5, R 2.32, C 2.98, F 2.45, P 2.91, H 3.64, T 2.45, M 2.65, W 1.45, E 2.18
R21: F 1.36, H 2.91, A 2.41, D 1.14, W 2.68, T 3.99, N 2.7, E 2.1, G 2.99, M 2.09, L 2.34, K 2.5, C 2.58
E20: I 3.04, D 2.65, M 2.92, P 2.08, K 2.09, R 2.49, S 5.14, L 2.34, G 3.34, C 2.38
C14: S 2.02, N 1.52, T 1.68, P 2.03, D 2.03, K 1.93, L 2.93, E 1.75, W 1.96, Q 1.84, R 2.16, G 1.84, Y 2.16, I 2.68, H 1.94
L6: M 2.44, H 2.11, Y 2.57, K 2.31, P 2.25, D 1.96, I 1.93, W 1.73, T 1.86, Q 2.02, G 1.98, N 1.97, F 2.59, C 3.33, V 2.98, R 2.02, E 1.52, S 2.14, A 2.13
L3: G 2.11, E 2.21, K 1.5, D 1.81, S 1.76, T 1.44, N 1.55, I 2.87, R 1.19, C 1.76, W 2.71, M 2, A 2.15, H 1.41, P 1.62, Q 1.78
I15: E 2.34, L 2.84, Y 2.3, P 2.07, T 2.07, A 1.62, R 1.71, M 1.17, W 2.07, D 2.54, Q 1.77, N 2.46, S 1.67, K 2.17, H 2.37, G 2.6
A5: M 1.51, S 2.33, L 3.11, D 2.68, C 3.02, N 2.61, F 4.25, H 2.44, I 2.07, K 1.92, Y 2.68, T 1.65, V 1.04, E 2.24, R 2.15

Variants of: B2
Experiment: as above
Conditions: c terminus: a fixed tail appended

Protein stability index, by site and new letter:
W24: P 2.91, Q 2.34, V 3.1, S 2.91, T 2.86, Y 2.51, R 3.11
